# B1: Synaptotagmin-2 (Rattus norvegicus (Rat)), P29101 (parent)
# chain: MRNIFKRNQEPIVAPATTTATMPLAPAAPADNSTESTGTGESQEDMFAKLKDKFFNEINKIPLPPWALIAMAVVAGLLLLTCCFCICKKCCCKKKKNKKEKGKGMKNAMNMKDMKGGQDDDDAETGLTEGEGEGEEEKEPENLGKLQFSLDYDFQANQLTVGVLQAAELPALDMGGTSDPYVKVFLLPDKKKKYETKVHRKTLNPAFNETFTFKVPYQELGGKTLVMAIYDFDRFSKHDIIGEVKVPMNTVDLGQPIEEWRDLQGGEKEEPEKLGDICTSLRYVPTAGKLTVCILEAKNLKKMDVGGLSDPYVKIHLMQNGKRLKKKKTTVKKKTLNPYFNESFSFEIPFEQIQKVQVVVTVLDYDKLGKNEAIGKIFVGSNATGTELRHWSDMLANPRRPIAQWHSLKPEEEVDALLGKNK
# Variants of: B1
# Conditions: with bxb_clobo botB
row,Variant,effect of a mutation on the interaction
1,F54A,disrupting interaction

# Variants of: B1
# Conditions: with bxb_clobo botB
# Remark: another data set of the same source
row,Variant,effect of a mutation on the interaction
1,F54L,disrupting interaction

# From IntAct's records for PubMed 22265973
